{
  "source": "paper PMC3326527",
  "about": "(Journal of molecular biology, 2005)",
  "target": "the molecule itself",
  "test": "crystal structure",
  "data": [
    {"protein": "UDP-galactopyranose mutase from Mycobacterium tuberculosis (enzyme) MQPMTARFDLFVVGSGFFGLTIAERVATQLDKRVLVLERRPHIGGNAYSEAEPQTGIEVHKYGAHLFHTSNKRVWDYVRQFTDFTDYRHRVFAMHNGQAYQFPMGLGLVSQFFGKYFTPEQARQLIAEQAAEIDTADAQNLEEKAISLIGRPLYEAFVKGYTAKQWQTDPKELPAANITRLPVRYTFDNRYFSDTYEGLPTDGYTAWLQNMAADHRIEVRLNTDWFDVRGQLRPGSPAAPVVYTGPLDRYFDYAEGRLGWRTLDFEVEVLPIGDFQGTAVMNYNDLDVPYTRIHEFRHFHPERDYPTDKTVIMREYSRFAEDDDEPYYPINTEADRALLATYRARAKSETASSKVLFGGRLGTYQYLDMHMAIASALNMYDNVLAPHLRDGVPLLQDGA", "values": [
      {"measurement": "binding result", "result": "binds"}
    ]}
  ]
}
